From PMC7961821, “Comparing Ligninolytic Capabilities of Bacterial and Fungal Dye-Decolorizing Peroxidases and Class-II Peroxidase-Catalases” (International Journal of Molecular Sciences, 2021)

How the values were obtained:
Test in all cases: purified protein
purified protein [1] = substrate: COc1cc(C(O)C(CO)Oc2ccccc2OC)ccc1O; conditions: 1 mM H2O2, 100 mM tartrate, pH 3, 25 °C, pH 3.0
purified protein [2] = substrate: COc1ccc(C(O)C(CO)Oc2ccccc2OC)cc1OC; format: biochemical, Pleurotus eryngii; conditions: 1 mM H2O2, 100 mM tartrate, pH 3, 25 °C
purified protein [3] = substrate: COc1cccc(OC)c1O
purified protein [4] = substrate: Nc1c(S(=O)(=O)O)cc(Nc2cccc(S(=O)(=O)CCOS(=O)(=O)O)c2)c2c1C(=O)c1ccccc1C2=O; conditions: 1 mM H2O2, optimal pH (not given for RB19), 25 °C
purified protein [5] = substrate: CCn1c(=NN=c2sc3cc(S(=O)(=O)O)ccc3n2CC)sc2cc(S(=O)(=O)O)ccc21; format: biochemical, Thermomonospora curvata; conditions: 1 mM H2O2, pH 3, 25 °C
purified protein [6] = substrate: CCn1c(=NN=c2sc3cc(S(=O)(=O)O)ccc3n2CC)sc2cc(S(=O)(=O)O)ccc21; format: biochemical, Amycolatopsis sp. ATCC 39116; conditions: 1 mM H2O2, pH 5, 25 °C
purified protein [7] = substrate: COc1ccc(C(O)C(CO)Oc2ccccc2OC)cc1OC; format: biochemical, Auricularia auricula-judae; conditions: 1 mM H2O2, 100 mM tartrate, pH 3, 25 °C
purified protein [8] = substrate: COc1ccc(C(O)C(CO)Oc2ccccc2OC)cc1OC; format: biochemical, Phanerodontia chrysosporium; conditions: 1 mM H2O2, 100 mM tartrate, pH 3, 25 °C

B1: PerVPL (Pleurotus eryngii) (protein)
chain: ATCDDGRTTANAACCILFPILDDIQENLFDGAQCGEEVHESLRLTFHDAIGFSPTLGGGGADGSIIAFDTIETNFPANAGIDEIVSAQKPFVAKHNISAGDFIQFAGAVGVSNCPGGVRIPFFLGRPDAVAASPDHLVPEPFDSVDSILARMGDAGFSPVEVVWLLASHSIAAADKVDPSIPGTPFDSTPGVFDSQFFIETQLKGRLFPGTADNKGEAQSPLQGEIRLQSDHLLARDPQTACEWQSMVNNQPKIQNRFAATMSKMALLGQDKTKLIDCSDVIPTPPALVGAAHLPAGFSLSDVEQACAATPFPALTADPGPVTSVPPVPGS
notes: heme enzyme
- Km (purified protein [1]): 206 ± 17 µM
- kcat (purified protein [1]): 2.7 ± 0.1 s⁻¹
- kcat/Km (purified protein [1]): 13.2 ± 0.7 s⁻¹ mM⁻¹
- Km (purified protein [2]): 659 ± 80 µM
- kcat (purified protein [2]): 1.2 ± 0.1 s⁻¹
- kcat/Km (purified protein [2]): 1.8 ± 0.1 s⁻¹ mM⁻¹

B2: TcuDyP (Thermomonospora curvata DSM 43183) (protein)
chain: SEERAAGARPSATQTTGTATEPFHGPHQAGIATPPQAHAVFLGLDLRKGTGRKELGRLMRLLTDDARRLTQGRPALADPEPDLAPLPSRLTFTFGFGPGLFKAAGLEKQRPEGLRPLPPFKVDRLEDRWSGGDLLVQICCDDPITLAHALRMTVKDARAFTRVRWVQRGFRRSPGVQSSGATQRNLMGQLDGTVNPVPGTADFDQAVWVQDGPEWLRGGTTLVLRRIRMELEKWDEADPAGKEFAVGRRLTSGAPLTGRHEHDEPDFDAVDSAGFPVIAENAHIRLAHVDSPRLRMLRRPYNYDEGLTADGRSDAGLLFAAYQADIDRQFIPVQRRLDEGGDLLNLWTTPIGSAVFAIPPGCDENGWIGQGLLG
notes: mature protein without signal peptide, codon-optimised, N-terminal His tag (pET28a), soluble from E. coli BL21(DE3) pLysS, heme enzyme
- Km (purified protein [1]): 80 ± 16 µM
- kcat (purified protein [1]): 1.1 ± 0.1 s⁻¹
- kcat/Km (purified protein [1]): 14.2 ± 1.8 s⁻¹ mM⁻¹
- Km (purified protein [3]; 1 mM H2O2, pH 3, 25 °C, pH 3.0): 2 ± 0.3 µM
- kcat (purified protein [3]; 1 mM H2O2, pH 3, 25 °C, pH 3.0): 2.7 ± 0.4 s⁻¹
- kcat/Km (purified protein [3]; 1 mM H2O2, pH 3, 25 °C, pH 3.0): 1300 ± 100 s⁻¹ mM⁻¹
- Km (purified protein [4]): 7 ± 2 µM
- kcat (purified protein [4]): 1.3 ± 0.1 s⁻¹
- kcat/Km (purified protein [4]): 200 ± 40 s⁻¹ mM⁻¹
- Km (purified protein [5]): 309 ± 95 µM
- kcat (purified protein [5]): 53.0 ± 6.1 s⁻¹
- kcat/Km (purified protein [5]): 170 ± 30 s⁻¹ mM⁻¹

B3: AspDyP2 (Amycolatopsis sp. ATCC 39116) (protein)
chain: MPVDLSTTLSWKSATGEAATMLDELQPNILKAHVRDRLTVLFLGFGDAAEARTFLNGLSGLMKSARTHLQEVEAHKLTKAVGTPYLGVGLTAHGYATLGVTAPADPSFTAGAKAAVEKLADPAVTEWEGHYQQTIDAVLLLGDATAGPVRTLRRQVEALRPASVTVVGEESGLGLANANGDGIEHFGYVDGRSQPLFLTEDVDAERDTTDGVNDWDPSAPLEQVLVPDPAAPDPTVHFGSYFVFRKLEQNVRLFKEAERDLAHDLGLRGEDRERAGAMLVGRFEDGTPLTAQSAPGSHHPVGNDFSYDSDKLGQKCPFHAHIRKTNPRGSGGAEAPEEERKHLMARRGQTYGRRHDDPNADLPPRLRPAKDVGLLFMAFNSNLGNQFEFTQQIWANNPAFPFPPDGSQPGLDPVIGQGARAPQKYAPEWGHNNVAEATDPIPQAVTMKGGEYFFMPSLAFLRSL
notes: mature protein, codon-optimised, N-terminal His tag (pET28a), soluble from E. coli BL21(DE3) pLysS, heme enzyme
- Km (purified protein [1]): 179 ± 39 µM
- kcat (purified protein [1]): 12.0 ± 1.2 s⁻¹
- kcat/Km (purified protein [1]): 67.0 ± 8.5 s⁻¹ mM⁻¹
- Km (purified protein [3]; 1 mM H2O2, pH 4, 25 °C, pH 4.0): 177 ± 34 µM
- kcat (purified protein [3]; 1 mM H2O2, pH 4, 25 °C, pH 4.0): 94.0 ± 4.6 s⁻¹
- kcat/Km (purified protein [3]; 1 mM H2O2, pH 4, 25 °C, pH 4.0): 530 ± 80 s⁻¹ mM⁻¹
- Km (purified protein [4]): 20 ± 4 µM
- kcat (purified protein [4]): 26.0 ± 2.0 s⁻¹
- kcat/Km (purified protein [4]): 1300 ± 200 s⁻¹ mM⁻¹
- Km (purified protein [6]): 165 ± 18 µM
- kcat (purified protein [6]): 30.0 ± 0.9 s⁻¹
- kcat/Km (purified protein [6]): 180 ± 20 s⁻¹ mM⁻¹

B4: AauDyP (Auricularia auricula-judae) (protein)
chain: ATSLNTDDIQGDILVGMHKQKQLFYFFAINDPATFKTHLASDIAPVVASVTQLSNVATQPLVALNIAFSNTGLLALGVTDNLGDSLFANGQAKDATSFKESTSSWVPQFAGTGIHGVIILASDTTDLIDQQVASIESTFGSSISKLYSLSASIRPGNEAGHEMFGFLDGIAQPAINGFNTPLPGQNIVDAGVIITGATNDPITRPSWAVGGSFLAFRQLEQLVPEFNKYLLDNAPAGSGSLQARADLLGARMVGRWKSGAPIDLTPTADDPALGADAQRNNNFTYSHAGFDLGSDQSHCPFSAHIRKTRPRADLGGSLTPPNLSAGANSIMRSGIPYGPEVTSAESASNTTTQERGLAFVAYQAQLSQGFHFLQQTWADNANFPPGKTPATVGLDPIIGQNNGQPRVVNGLLPSNSSASLSIPQFVVSHGGEYFFSPPISAIGGRLSA
notes: heme enzyme
- Km (purified protein [7]): 448 ± 59 µM
- kcat (purified protein [7]): 0.3 ± 0.01 s⁻¹
- kcat/Km (purified protein [7]): 0.7 ± 0.1 s⁻¹ mM⁻¹

B5: PchLiPA (Phanerodontia chrysosporium) (protein)
chain: ATCSNGKTVGDASCCAWFDVLDDIQQNLFHGGQCGAEAHESIRLVFHDSIAISPAMEAQGKFGGGGADGSIMIFDDIETAFHPNIGLDEIVKLQKPFVQKHGVTPGDFIAFAGRVALSNCPGAPQMNFFTGRAPATQPAPDGLVPEPFHTVDQIINRVNDAGEFDELELVWMLSAHSVAAVNDVDPTVQGLPFDSTPGIFDSQFFVETQLRGTAFPGSGGNQGEVESPLPGEIRIQSDHTIARDSRTACEWQSFVNNQSKLVDDFQFIFLALTQLGQDPNAMTDCSDVIPQSKPIPGNLPFSFFPAGKTIKDVEQACAETPFPTLTTLPGPETSVQRIPPPPGA
notes: heme enzyme
- Km (purified protein [1]): 208 ± 41 µM
- kcat (purified protein [1]): 1.3 ± 0.1 s⁻¹
- kcat/Km (purified protein [1]): 6.5 ± 0.7 s⁻¹ mM⁻¹
- Km (purified protein [8]): 88 ± 3 µM
- kcat (purified protein [8]): 1.3 ± 0.2 s⁻¹
- kcat/Km (purified protein [8]): 14.7 ± 0.4 s⁻¹ mM⁻¹
